The text below walks through data of patent US20170137467A1 (CHROMOTEK, published 2017).

Test [1] has as its target T1, recombinant human β-catenin, full-length (human, UniProt P35222 1-781, limits assumed).
T1 construct: Purified from E. coli; also called full-length β-catenin
T1 sequence (looked up): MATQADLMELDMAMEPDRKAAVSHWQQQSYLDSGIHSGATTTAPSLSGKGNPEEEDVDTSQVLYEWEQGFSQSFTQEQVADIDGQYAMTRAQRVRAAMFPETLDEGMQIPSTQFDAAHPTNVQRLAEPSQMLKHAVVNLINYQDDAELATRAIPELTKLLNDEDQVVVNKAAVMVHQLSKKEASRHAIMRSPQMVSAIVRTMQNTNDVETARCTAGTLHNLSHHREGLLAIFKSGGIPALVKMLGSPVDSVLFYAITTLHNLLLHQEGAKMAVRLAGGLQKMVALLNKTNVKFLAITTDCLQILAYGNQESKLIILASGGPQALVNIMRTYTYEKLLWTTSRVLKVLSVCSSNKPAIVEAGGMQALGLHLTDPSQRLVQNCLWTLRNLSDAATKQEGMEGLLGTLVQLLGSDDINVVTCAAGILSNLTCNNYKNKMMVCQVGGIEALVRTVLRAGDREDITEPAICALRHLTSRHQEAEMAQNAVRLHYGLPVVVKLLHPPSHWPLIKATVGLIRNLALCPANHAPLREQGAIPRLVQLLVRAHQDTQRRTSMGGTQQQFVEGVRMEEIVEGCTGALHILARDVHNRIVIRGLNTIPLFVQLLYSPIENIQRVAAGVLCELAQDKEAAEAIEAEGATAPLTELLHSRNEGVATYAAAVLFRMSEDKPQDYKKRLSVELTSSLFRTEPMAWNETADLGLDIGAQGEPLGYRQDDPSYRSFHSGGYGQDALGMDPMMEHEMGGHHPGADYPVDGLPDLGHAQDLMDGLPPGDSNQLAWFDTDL
Description: not stated at this place (description). How it is done: The dissociation was induced by two injections of regeneration solution of 15 μl each at the identical flow rates.

In test [2] the target is T2, mCherry-Vimentin (untagged) (UniProt P08670 1-466).
T2 construct: Control without the BC2 tag; not shown: mCherry fluorescent protein
T2 sequence (P08670 whole entry): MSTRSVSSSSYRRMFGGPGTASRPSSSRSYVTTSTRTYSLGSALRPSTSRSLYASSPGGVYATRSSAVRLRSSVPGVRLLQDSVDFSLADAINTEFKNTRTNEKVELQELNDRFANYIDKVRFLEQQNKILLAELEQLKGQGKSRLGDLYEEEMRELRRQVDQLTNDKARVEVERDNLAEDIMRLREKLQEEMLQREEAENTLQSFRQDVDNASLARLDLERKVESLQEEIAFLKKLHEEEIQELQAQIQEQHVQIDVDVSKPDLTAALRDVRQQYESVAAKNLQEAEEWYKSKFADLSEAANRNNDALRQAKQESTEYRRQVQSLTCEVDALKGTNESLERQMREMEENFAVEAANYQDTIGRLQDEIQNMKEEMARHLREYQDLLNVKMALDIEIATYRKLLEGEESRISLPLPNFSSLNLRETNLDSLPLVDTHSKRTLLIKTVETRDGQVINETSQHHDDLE
In words: immunoprecipitation from HEK293T lysate with the BC2 nanotrap, immunoblot with anti-vimentin. How it is done:
HEK293T cells transiently expressing eGFP, eGFPBC2T or BC2TeGFP, eGFP-PCNA, eGFP-PCNABC2T, mCherry-Vimentin, mCherry-VimentinBC2T were washed and harvested in phosphate buffered saline (PBS), snap-frozen in liquid nitrogen and stored at −20° C. Cell pellets were homogenized in 200 μl lysis buffer (10 mM Tris/Cl pH 7.5, 150 mM NaCl, 0.5% NP40, 1 μg DNaseI, 2 mM MgCl₂, 2 mM PMSF, 1× protease inhibitor mix M (Serva) by repeated pipetting for 40 min on ice. After a centrifugation step (10 min at 18.000×g) the protein concentration of each lysate was determined using a Pierce BCA Protein Assay Kit (Thermo Fisher Scientific) according to manufacturer's protocol and the protein solutions were adjusted with dilution buffer (10 mM Tris/Cl pH 7.5, 150 mM NaCl, 2 mM PMSF) to a concentration of 1 mg/ml. 2% of the supernatant were added to SDS-containing sample buffer (referred to as input). […] After a centrifugation step (2 min, 2500×g) the precleared supernatant was transferred to a new cup. 2% were added to SDS-containing sample buffer (referred to as non-bound). […] Samples were analyzed by SDS-PAGE followed by immunoblotting. Immunoblots were probed with indicated antibodies.

The next test addresses T3, MEPDRKAAVSHW
T3 construct: C-terminal truncation; also called β-catenin aa 14-25
T3 peptide: MEPDRKAAVSHW
In words: truncated peptides of β-catenin aa 14-27 on OVA-microspheres, biotinylated BC2-Nb, streptavidin-PE. An excerpt:
(§1) As negative controls, microspheres comprising Ovalbumin and the Myc-peptide ([…]) covalently coupled to OVA-microspheres were used. […] Evaluation of the PE-signals were done in a Flexmap 3D (Luminex).

A further test has as its target T4, MEPDRKAAVSHWQQ
T4 construct: full-length peptide of both truncation series; also called β-catenin aa 14-27
T4 peptide: MEPDRKAAVSHWQQ
The description is as above.
Text: as §1

Another test deals with T5, EPDRKAAVSHWQQ
T5 construct: N-terminal truncation; also called β-catenin aa 15-27
T5 peptide: EPDRKAAVSHWQQ
The description is as above.
Text: as §1

The target of a further test is T6, MEPDRKAAVS
T6 construct: C-terminal truncation; also called β-catenin aa 14-23
T6 peptide: MEPDRKAAVS
The test is described as above.
Text: as §1

The next test addresses T7, RKAAVSHWQQ
T7 construct: N-terminal truncation; also called β-catenin aa 18-27
T7 peptide: RKAAVSHWQQ
The test is described as above.
Text: as §1

The target in a further test is T8, MEPDRKAAVSHWQ
T8 construct: C-terminal truncation; also called β-catenin aa 14-26
T8 peptide: MEPDRKAAVSHWQ
Described as above.
Text: as §1

In the next test the target is T9, AAVSHWQQ
T9 construct: N-terminal truncation; also called β-catenin aa 20-27
T9 peptide: AAVSHWQQ
The description is as above.
Text: as §1

In another test the target is T10, MEPDRKAAVSH
T10 construct: C-terminal truncation; also called β-catenin aa 14-24
T10 peptide: MEPDRKAAVSH
The test is described as above.
Text: as §1

B1: BC2 nanobody (VHH)
VHH: QVQLVESGGGLVQPGGSLTLSCTASGFTLDHYDIGWFRQAPGKEREGVSCINNSDDDTYYADSVKGRFTIFMDNAKDTVYLQMNSLKPEDTAIYYCAEARGCKRGRYEYDFWGQGTQVTVSS
notes: Alpaca VHH, 122 aa; also called BC2-Nb; BC2 nanotrap (BC2-Nb immobilized on agarose/Sepharose beads); not shown: C-terminal 6xHis-tag added by the pHEN6 vector
The term Kd denotes the free concentration of one partner at which half of the binding sites on the other are occupied at equilibrium, for simple one-to-one binding. For B1, the Kd in test [1] was found to be 3.7 nM. Also, the binding result was “no binding” in [2]; “binds” with MEPDRKAAVSHW; “binds” with MEPDRKAAVSHWQQ; “binds” with EPDRKAAVSHWQQ; “no binding (tested: 1 µg/ml BC2-Nb)” in the test with MEPDRKAAVS; “binds” in the test with RKAAVSHWQQ. In addition, the binding result is “binds” in the test with MEPDRKAAVSHWQ, “no binding (tested: 1 µg/ml BC2-Nb)” in the test with AAVSHWQQ and “no binding (tested: 1 µg/ml BC2-Nb)” with MEPDRKAAVSH.
